Source: patent publication US10709762B2, “Use of M-CSF for preventing or treating myeloid cytopenia and related complications” (priority 2013, dated 2020)

Test system: PU.1 expression in sorted HSC
Test: Quantitative RT-PCR of PU.1 expression in sorted HSC in culture
Assay type: cell-based, mice
Details: 16 h in culture with cytokine, 100 ng/ml
Description: CD150+CD34− KSLF HSC or CD150+CD34− CD48− KSLF HSC (single cells) were sorted into S-clone SF-03 medium (Sanko Jyunyaku) with 10% FBS supplemented with 100 U/ml penicillin and […] streptomycin (both Invitrogen) and cultivated in uncoated U-Shape 96 well plates (Greiner) in 100 μl SCM, 20 ng/ml rSCF, 50 ng/ml rTPO+/−100 ng/ml rM-CSF or 100 ng/ml rGM-CSF or 100 ng/ml rG-CSF. All cytokines were murine and from PeproTech. Cell viability was analyzed by AnnexinV and Propidium iodide FACS staining^35.
Total RNA was isolated and reverse transcribed with μMACS™ ONE-STEP T7 template kit (Miltenyi Biotec) and analysed by quantitative real-time PCR using TAQMAN® Universal PCR Master Mix and a 7500 Fast Real Time PCR System sequence detection system (both Applied Biosystem), following the manufacturers' instructions.

B1: M-CSF: recombinant murine macrophage colony stimulating factor from PeproTech, used in Example 1 (protein, UniProt P07141 33-552, looked up)
Macrophage colony-stimulating …: KEVSEHCSHMIGNGHLKVLQQLIDSQMETSCQIAFEFVDQEQLDDPVCYLKKAFFLVQDIIDETMRFKDNTPNANATERLQELSNNLNSCFTKDYEEQNKACVRTFHETPLQLLEKIKNFFNETKNLLEKDWNIFTKNCNNSFAKCSSRDVVTKPDCNCLYPKATPSSDPASASPHQPPAPSMAPLAGLAWDDSQRTEGSSLLPSELPLRIEDPGSAKQRPPRSTCQTLESTEQPNHGDRLTEDSQPHPSAGGPVPGVEDILESSLGTNWVLEEASGEASEGFLTQEAKFSPSTPVGGSIQAETDRPRALSASPFPKSTEDQKPVDITDRPLTEVNPMRPIGQTQNNTPEKTDGTSTLREDHQEPGSPHIATPNPQRVSNSATPVAQLLLPKSHSWGIVLPLGELEGKRSTRDRRSPAELEGGSASEGAARPVARFNSIPLTDTGHVEQHEGSSDPQIPESVFHLLVPGIILVLLTVGGLLFYKWKWRSHRDPQTLDSSVGRPEDSSLTQDEDRQVELPV
PU.1 expression in FACS purified HSC: increased PU.1 expression
